Measured values reported in patent CN116535505A.

How the values were obtained:
[1] = target: 红细胞胞膜抗原 (Erythrocyte membrane antigen) on human fresh red blood cells (human); test: ELISA on formaldehyde-fixed human red blood cells; antibody at 50 ng/ml
[2] = target: 红细胞胞膜抗原 (Erythrocyte membrane antigen) on human fresh red blood cells (human); test: ELISA on formaldehyde-fixed human red blood cells; antibody at 3.125 ng/ml
[3] = target: 红细胞胞膜抗原 (Erythrocyte membrane antigen) on human fresh red blood cells (human); test: ELISA on formaldehyde-fixed human red blood cells; antibody at 6.25 ng/ml
[4] = target: 红细胞胞膜抗原 (Erythrocyte membrane antigen) on human fresh red blood cells (human); test: ELISA on formaldehyde-fixed human red blood cells; antibody at 25 ng/ml
[5] = target: 红细胞胞膜抗原 (Erythrocyte membrane antigen) on human fresh red blood cells (human); test: ELISA on formaldehyde-fixed human red blood cells; antibody at 0 ng/ml (blank)
[6] = target: 红细胞胞膜抗原 (Erythrocyte membrane antigen) on human fresh red blood cells (human); test: ELISA on formaldehyde-fixed human red blood cells; antibody at 12.5 ng/ml
[7] = target: 红细胞胞膜抗原 (Erythrocyte membrane antigen) on human fresh red blood cells (human); test: ELISA on red blood cells; Anti-EM-8F9mut1 stored 21 days at -80 C; antibody at 1.5625 ng/ml
[8] = target: 红细胞胞膜抗原 (Erythrocyte membrane antigen) on human fresh red blood cells (human); test: ELISA on red blood cells; Anti-EM-8F9mut1 stored 21 days at -80 C; antibody at 12.5 ng/ml
[9] = target: 红细胞胞膜抗原 (Erythrocyte membrane antigen) on human fresh red blood cells (human); test: ELISA on red blood cells; Anti-EM-8F9mut1 stored 21 days at 37 C; antibody at 12.5 ng/ml
[10] = target: 红细胞胞膜抗原 (Erythrocyte membrane antigen) on human fresh red blood cells (human); test: ELISA on red blood cells; Anti-EM-8F9mut1 stored 21 days at 37 C; antibody at 0 ng/ml (blank)
[11] = target: 红细胞胞膜抗原 (Erythrocyte membrane antigen) on human fresh red blood cells (human); test: ELISA on red blood cells; Anti-EM-8F9mut1 stored 21 days at 4 C; antibody at 12.5 ng/ml
[12] = target: 红细胞胞膜抗原 (Erythrocyte membrane antigen) on human fresh red blood cells (human); test: ELISA on red blood cells; Anti-EM-8F9mut1 stored 21 days at 4 C; antibody at 1.5625 ng/ml
[13] = target: 红细胞胞膜抗原 (Erythrocyte membrane antigen) on human fresh red blood cells (human); test: ELISA on red blood cells; Anti-EM-8F9mut1 stored 21 days at -80 C; antibody at 0 ng/ml (blank)
[14] = target: 红细胞胞膜抗原 (Erythrocyte membrane antigen) on human fresh red blood cells (human); test: ELISA on red blood cells; Anti-EM-8F9mut1 stored 21 days at 37 C; antibody at 1.5625 ng/ml
[15] = target: 红细胞胞膜抗原 (Erythrocyte membrane antigen) on human fresh red blood cells (human); test: ELISA on red blood cells; Anti-EM-8F9mut1 stored 21 days at 4 C; antibody at 0 ng/ml (blank)

Row | OD450 (ref 630 nm) [1] | OD450 (ref 630 nm) [2] | OD450 (ref 630 nm) [3] | OD450 (ref 630 nm) [4] | OD450 (ref 630 nm) [5] | OD450 (ref 630 nm) [6] | OD450 (ref 630 nm) [7] | OD450 (ref 630 nm) [8] | OD450 (ref 630 nm) [9] | OD450 (ref 630 nm) [10] | OD450 (ref 630 nm) [11] | OD450 (ref 630 nm) [12] | OD450 (ref 630 nm) [13] | OD450 (ref 630 nm) [14] | OD450 (ref 630 nm) [15] | Molecule
1 | 1.89 OD | 0.196 OD | 0.408 OD | 1.3 OD | 0.041 OD | 0.696 OD |  |  |  |  |  |  |  |  |  | 对照抗体 (antibody)
2 | 2.36 OD | 1.28 OD | 2 OD | 2.42 OD | 0.063 OD | 2.33 OD | 0.647 OD | 2.15 OD | 2.13 OD | 0.057 OD | 2.12 OD | 0.691 OD | 0.051 OD | 0.666 OD | 0.047 OD | Anti-EM-8F9mut1单克隆抗体 (antibody, mouse IgG2a, kappa, V domains shown) VH: QVPLQQPGAALVKPGASVKLSCQASDYTFTNYNMHWVKQTPGQGLEWIGTIYAGDGDPSYNQKFKGQATLTADKSSSTAYMQLLSLTSEDSAVYYCARGGTRAMDYWGHGTSVTVSS VL: DVLLTQIPLSLPVSLGDQASLSCRSSQTLVHSDGNTYLAWYLQKPGQSPKLLIYKVSRRFSGVPDRFSGSGSGTDFTLKISRVEAEDLGVYYCFQGSHVPFTFGSGTKLEVKR
